Data set [1] deals with Huh7 human liver cell line. The experiment in a line: Luciferase expression from promoters in pAAV vector (with ITRs) in Huh7, forskolin or NKH477 induction. Details: fold induction with forskolin: dose or concentration left out as unconfirmed.
Description: The forskolin-inducible promoters RTV-017, RTV-019 and FORCYB1 were then used to drive expression of luciferase in a pAAV vector in the Huh7 human liver cell line. […] This experiment was performed to investigate the effect of the Inverted Terminal Repeats (ITRs) on the activity of the promoters.
The cells were seeded, transfected and induced as described above. Luciferase expression was measured as described above. In this experiment, the cells were induced by using 20 pM forskolin or 7.2 pM of the water soluble derivative NKH477.
Another data set deals with HEK293-F. The experiment in a line: Luciferase time course under hypoxia, transiently transfected HEK293-F. In kind it is cell-based, human. The following applies: hypoxia 5% oxygen, printed order RTV-015, SYNP-HYP-001, RTV-016, HYBT, HV3C. As for the experimental part:
The constructs were initially used to drive luciferase expression in HEK293-F and HEK293-T in hypoxia.
40 ml of cells were grown in a 250 ml vented Erlenmeyer flask (Sigma-Aldrich CLS431144) at 37° C., 20% O2, 8% CO2 with agitation at 100 rpm. Cells were seeded as described in the manufacturer's instructions (300,000 cells/ml). HEK293-F were obtained from Thermofisher, R79007.
(§1) One day before transfection, the cells were counted using a haemocytometer and split to 500,000 cells/ml.
On the day of transfection, the cells are seeded to 1,000,000 cells/ml in 500 μl of appropriate medium (Freestyle 293 expression medium, 12338002) in a 24 well plate. […] of DNA per well was then added to 10 μl of OptiMem medium (Thermofisher; 11058021) and incubated for 5 minutes at room temperature.
Concurrently, 0.625 μl of Max reagent (Thermofisher, 16447100) was made up to 10 μl by addition of OptiMem and incubated for 5 minutes at room temperature. After this incubation, both mixes were added to the same tube and incubated at room temperature for 25-30 minutes. […]
After transfection the cells were incubated for 24 hrs in normoxia conditions (20% oxygen) before being switched to a gas mix of 5% oxygen, 10% carbon dioxide and 85% nitrogen (hypoxia). […] Induction of the promoters was assessed by using luciferase activity after 3, 5 and 24 hrs in hypoxia.
Luciferase activity was measured using LARII (Dual Luciferase Reporter 1000 assay system, Promega, E1980).
Media was removed from the cells at the respective time point (0, 3, 5, 24 hrs after induction). […] 10 μl of supernatant was pipetted into white 96-well plate and luminescence measured by addition of 50 μl of LARII substrate.
β-galactosidase activity was measured as per manufacturer's instructions (Mammalian βGalactosidase Assay Kit, 75707/75710, Thermo Scientific) using 25 μl of lysate. […] The mixture was incubated at 37° C. for 30 min and absorbance measured at 405 nm.
Luciferase readouts were normalised to β-galactosidase to produce normalised relative luminometer units (RLUs).

The subject of a further data set is CHO-GSK1SV. The experiment in a line: Luciferase expression in normoxia vs 24 h hypoxia, transiently transfected CHO-GS suspension cells. In kind it is cell-based, chinese hamster. The following applies: for relative rank of promoter strength: transient CHO-GSK1SV, hypoxia; for inducibility after 24 hours in hypoxia (rank) / luciferase activity in normoxia: transient CHO_GS. The method, then: 40 ml of cells were grown in a 250 ml vented Erlenmeyer flask (Sigma-Aldrich CLS431144) at 37° C., 20% O2, 8% CO2 with agitation at 100 rpm. Cells were seeded as at 300,000 cells/ml.
as §1
On the day of transfection, the cells are seeded to 1,000,000 cells/ml in 500 μl of appropriate medium (Thermofisher, CD-CHO 10743029) in a 24 well plate. […] of DNA per well was then added to 10 μl of OptiMem medium (Thermofisher; 11058021) and incubated for 5 minutes at room temperature.
Concurrently, 0.625 μl of Freestyle Max reagent (Thermofisher, 16447100) was made up to 10 μl by addition of OptiMem and incubated for 5 minutes at room temperature. After this incubation, both mixes were added to the same tube and incubated at room temperature for 25-30 minutes. The DNA/Max reagent mix (20 μl/well) was then added directly to the cells and the cells incubated at 37 C, 8% CO2 with agitation at 100 rpm.
The transfected DNA was one of the vectors where the promoter constructs (RTV-015, HYBT, RTV-016, HV3C) or a control promoter (CMV-IE) were used to drive luciferase expression and β-galactosidase containing pcDNA6 plasmid. The β-galactosidase containing plasmid was used as internal control for transfection efficiency (Thermofisher, V22020).
After transfection the cells were incubated for 24 hrs in normoxic conditions (20% oxygen). Induction of the promoters was assessed by using luciferase activity after 24 hrs in normoxia or hypoxia (5% oxygen, 10% carbon dioxide and 85% nitrogen). Hypoxia was achieved by gas displacement in a sealed hypoxia chamber. Luciferase activity was measured as described above.

B1: RTV-019: synthetic forskolin-inducible promoter, SEQ ID NO: 44; 3× ATF6, 4× AP1(1) and 3× HRE1 TFBS and CMV-MP (nucleic acid)
DNA: TGACGTGCTGATGATGCGTAGCTAGTAGTTGACGTGCTGATGATGCGTAGCTAGTAGTTGACGTGCTGATGATGCGTAGCTAGTAGTTGAGTCAGATGATGCGTAGCTAGTAGTTGAGTCAGATGATGCGTAGCTAGTAGTTGAGTCAGATGATGCGTAGCTAGTAGTTGAGTCAGATGATGCGTAGCTAGTAGTCTGCACGTAGATGATGCGTAGCTAGTAGTCTGCACGTAGATGATGCGTAGCTAGTAGTCTGCACGTAGATGATGCGTAGCTAGTAGTGCAGTTAGCGTAGCTGAGGTACCGTCGACGATATCGGATCCAGGTCTATATAAGCAGAGCTCGTTTAGTGAACCGTCAGATCGCCTAGATACGCCATCCACGCTGTTTTGACCTCCATAGAAGATCGCCACC
modifications: Synp-RTV-019
notes: 3× ATF6, 4× AP1(1) and 3× HRE1 TFBS and CMV-MP
Take B1: in data set [1] (Huh7), the “fold induction with forskolin” value turned out to be 98 fold and the “luciferase activity without induction (background)” value was “low background activity”. Moreover, the “fold induction with NKH477” value in data set [1] (Huh7, 7.2 pM NKH477) turned out to be 86 fold. The “luciferase activity following induction” value in data set [1] (Huh7, or 7.2 pM NKH477) was “high activity”.

B2: RTV-015: synthetic hypoxia-inducible promoter, SEQ ID NO: 81; 5 HRE1 elements spaced by 40 bp and minimal promoter MP1 (nucleic acid)
DNA: ACGTGCGATGATGCGTAGCTAGTAGTGATGATGCGTAGCTAGTAGTACGTGCGATGATGCGTAGCTAGTAGTGATGATGCGTAGCTAGTAGTACGTGCGATGATGCGTAGCTAGTAGTGATGATGCGTAGCTAGTAGTACGTGCGATGATGCGTAGCTAGTAGTGATGATGCGTAGCTAGTAGTACGTGCTTGGTACCATCCGGGCCGGCCGCTTAAGCGACGCCTATAAAAAATAGGTTGCATGCTAGGCCTAGCGCTGCCAGTCCATCTTCGCTAGCCTGTGCTGCGTCAGTCCAGCGCTGCGCTGCGTAACGGCCGCC
modifications: Synp-RTV-015
notes: 5 HRE1 elements spaced by 40 bp and minimal promoter MP1
As to B2, the “relative rank of promoter activity” value with HEK293-F is “weakest”. In addition, in the data set with CHO-GSK1SV, the “relative rank of promoter strength” value is given as “weakest”, the “inducibility after 24 hours in hypoxia (rank)” value is “lowest” and the “luciferase activity in normoxia” value is recorded as “almost no luciferase activity”.

B3: HV3C: synthetic hypoxia-inducible promoter, SEQ ID NO: 85/87; 4 HRE3 elements and CMV minimal promoter (nucleic acid)
DNA: GATCTTTGTATTTAATTAAGACCTTGAGTACGTGCGTCTCTGCACGTATGGCGATTAAGACCTTGAGTACGTGCGTCTCTGCACGTATGGCGATTAAGACCTTGAGTACGTGCGTCTCTGCACGTATGGCGATTAAGACCTTGAGTACGTGCGTCTCTGCACGTATGGCGATTAATCCATATGCAGGTCTATATAAGCAGAGCTCGTTTAGTGAACCGTCAGATCGCCTAGATACGCCATCCACGCTGTTTTGACCTCCATAGAAGATCGCCACC
modifications: Synp-HV3C
notes: 4 HRE3 elements and CMV minimal promoter
Regarding B3, in the data set with HEK293-F, the “relative rank of promoter activity” value is “strongest”. Besides, in the data set on CHO-GSK1SV, the “relative rank of promoter strength” value is recorded as “strongest”, the “inducibility after 24 hours in hypoxia (rank)” value was “highest” and the “luciferase activity in normoxia” value is “almost no luciferase activity”.

(Values after US20230167458A1, “FORSKOLIN-INDUCIBLE PROMOTERS AND HYPOXIA-INDUCIBLE PROMOTERS” (ASKLEPIOS BIOPHARMACEUTICAL, INC., priority 2020, published 2023).)
